Test results taken from PMC4546566 (Annals of neurology, 2015).

Key:
[1] = Aβ stable isotope labeling kinetics; assay type: in vivo, human; conditions: for FTR faster in cognitively normal amyloid positive group: in vivo
[2] = assay type: in vivo, human; conditions: 0.143 - 0.091

## Aβ38: endogenous soluble amyloid-beta isoform ending at residue 38, measured in human CSF
[1]
  FTR faster in cognitively normal amyloid positive group: 22%

## Aβ40: endogenous soluble amyloid-beta isoform ending at residue 40, measured in human CSF
[1]
  FTR faster in cognitively normal amyloid positive group: 17%

## Aβ42: endogenous soluble amyloid-beta isoform ending at residue 42, measured in human CSF
[1]; compartmental model, CDR-SB = 0 (n=44), mean ± SD
  FTR (fractional turnover rate, irreversible loss): 0.104 ± 0.036 pools/h
[1]
  FTR faster in cognitively normal amyloid positive group: 57%
[2]
  deposition rate constant into amyloid plaques: 0.052 pool/h
